# According to patent US6998254, “Use of ROR for receptors for screening substances useful for the treatment of atherosclerosis” (Merck Patent Gesellschaft):
# T1: hRORα1 (RORA isoform 1) (Homo sapiens, UniProt P35398 P35398:1-523)
# T1 sequence: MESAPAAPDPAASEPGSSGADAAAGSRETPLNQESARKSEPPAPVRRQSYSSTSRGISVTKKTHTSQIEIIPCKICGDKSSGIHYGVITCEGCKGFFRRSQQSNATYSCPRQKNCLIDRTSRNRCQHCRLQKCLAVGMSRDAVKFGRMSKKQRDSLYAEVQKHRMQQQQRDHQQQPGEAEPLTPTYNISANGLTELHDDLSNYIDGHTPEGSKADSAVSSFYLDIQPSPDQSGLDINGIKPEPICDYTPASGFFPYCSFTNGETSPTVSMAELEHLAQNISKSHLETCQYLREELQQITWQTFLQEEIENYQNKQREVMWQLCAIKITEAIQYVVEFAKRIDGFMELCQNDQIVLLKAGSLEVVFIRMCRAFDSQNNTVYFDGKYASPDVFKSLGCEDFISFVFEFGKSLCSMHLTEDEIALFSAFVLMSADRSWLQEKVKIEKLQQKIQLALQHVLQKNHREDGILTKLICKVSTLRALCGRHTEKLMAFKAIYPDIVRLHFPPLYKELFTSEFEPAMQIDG
# B1: hCIIITaTaKO (-33/-10) (dsDNA)
# DNA 1: GATCGATATAAAACAGGCAGGAACCCTC
# DNA 2: GATCGAGGGTTCCTGCCTGTTTTATATC
# B2: RORECons (dsDNA)
# DNA 1: GATCTTGACCTACATTCTAAGCTG
# DNA 2: GATCCAGCTTAGAATGTAGGTCAA
# B3: rAITaTaWT (-36/-12) (dsDNA)
# DNA 1: GATCCACACATATATAGGTCAGGGAAGAAGA
# DNA 2: GATCTCTTCTTCCCTGACCTATATATGTGTG
# Key:
# Conditions in all cases: tags: TnT T7 reticulocyte lysate from pCMX-hRORα1
# hRORα1 (RORA isoform 1) [1] = molecular target: T1, hRORα1 (RORA isoform 1); assay: competition; 10-100x excess does not compete
# Description: (§1) During the competition experiments, increasing concentrations of nonlabelled double-stranded oligo-nucleotides (molar excess of 10 to 100 fold) were added to the mixtures and incubated for 15 min at room temperature before the addition of the radioactive probes. After addition of the radioactive probes, the reticulocyte lysates were added to the mixture and incubated for 15 min at room temperature before the separation of the protein/DNA complexes by electrophoresis on a polyacrylamide gel (4%) in a 0.25× Tris-borate-EDTA buffer at room temperature (50).
# In FIG. 7, the −198/+24 fragment of the promoter of the human gene for apo C-III was amplified by PCR with the aid of the primers 82 and 512 (Table 1) previously phosphoryiated at the 5' end by poly-nucleotide kinase in the presence of [γ-^32P]ATP. This probe was incubated in the presence of reticulocyte lysate (TNT-T7, Promega) programmed to express the hRORα1 receptor according to the protocol defined by the manufacturer or in the presence of control lysate. The DNA/protein complexes were then separated on a non denaturing polyacrylamide gel. After drying, the gel is subjected to autoradiography. The first lane of the gel corresponds to the migration of the probe alone. The second lane corresponds to the migration of the probe incubated in the presence of the control lysate. […]
# hRORα1 (RORA isoform 1) [2] = molecular target: T1, hRORα1 (RORA isoform 1); assay: competition; unlabelled competitor 10-100x
# Description: as §1
# In this figure, fragment −90/−64 of the promoter of the human gene for apo C-III was phosphorylated at the 5' ends with polynucleotide kinase in the presence of [γ-^32P]ATP. This probe was incubated in the presence of reticuloycte lysate ("TNT-T7", Promega) programmed to express the hRORα1 receptor according to the protocol defined by the manufacturer or in the presence of control lysate. The DNA/protein complexes were then separated on nondenaturing polyacrylamide gel. After drying, the gel is subjected to autoradiography. The first lane of the gel corresponds to the migration of the probe incubated in the presence of control lysate. The other lanes correspond to the migration of the probe incubated in the presence of lysate programmed to express hRORα1. […]
# hRORα1 (RORA isoform 1) [3] = molecular target: T1, hRORα1 (RORA isoform 1); assay: competition; unlabelled competitor 10-100x; remark: listed apart in the source
binder,measurement,setting,value
B1,binding result,hRORα1 (RORA isoform 1) [1],no binding
B2,binding result,hRORα1 (RORA isoform 1) [2],binds
B3,binding result,hRORα1 (RORA isoform 1) [3],binds
